Test results published in article PMC9343077 (Research, 2022).

Molecular target: T1, SARS-CoV-2 spike RBD (Arg319-Asn532) fused to a His tag (SARS-CoV-2, UniProt P0DTC2)
T1 construct: also called SARS-CoV-2 spike RBD-His; SARS-CoV-2-RBD-His; not shown: His tag, N-terminal, kept
Test: radioligand binding
Settings: both partners purified

B1: ^68Ga-Nb1159 (nanobody Nb11-59 conjugated to NOTA and radiolabeled with ^68Ga) (VHH)
VHH: EVQLQESGGGLVQPGGSLRLSCAASGFTFSSYDMSWVRQAPGKGLEWVSAINSSGGSTYYADSVKGRFTISRDNAKNTLYLQMNSLKTEDTAVYYCAPSQTYGGSWYWDPIGDWGQGTLVTVSS
notes: also called ^68Ga-NOTA-Nb1159; NOTA-Nb1159 (before labelling)
For B1, the Kd was 25.5 nM.
